Experiment: Michaelis–Menten kinetic analysis with colorimetric substrate nitrocefin
Format: biochemical
Settings: PBS, 30 °C, mean ± SEM

B1: Enterobacter chloacae P99 beta-lactamase (protein, UniProt P05364 21-381, looked up)
Beta-lactamase: TPVSEKQLAEVVANTITPLMKAQSVPGMAVAVIYQGKPHYYTFGKADIAANKPVTPQTLFELGSISKTFTGVLGGDAIARGEISLDDAVTRYWPQLTGKQWQGIRMLDLATYTAGGLPLQVPDEVTDNASLLRFYQNWQPQWKPGTTRLYANASIGLFGALAVKPSGMPYEQAMTTRVLKPLKLDHTWINVPKAEEAHYAWGYRDGKAVRVSPGMLDAQAYGVKTNVQDMANWVMANMAPENVADASLKQGIALAQSRYWRIGSMYQGLGWEMLNWPVEANTVVEGSDSKVALAPLPVAEVNPPAPPVKASWVHKTGSTGGFGSYVAFIPEKQIGIVMLANTSYPNPARVEAAYHILEALQ
modifications: C-terminal His6 tag
Work on B1 yielded a kcat/Km of 7.5 ± 0.6 s⁻¹ µM⁻¹.

From publication PMC4234684 (Cellular and molecular life sciences : CMLS, 2014)
